Data on 12 molecules can be found in patent publication US20030180746, “Polymorphism detection and separation” (published 2003).

Data set [1] addresses T1, RecA (Escherichia coli, UniProt P0A7G6 P0A7G6:2-353). Briefly: EMSA; Hyg- PCR target, LNA annealing oligos. As to conditions: label: 5'-Cy5. From the text: We also form double D-loops using a PCR product produced from a plasmid containing the a functional hygromycin resistance gene (Hyg⁺) or a hygromycin resistance gene containing a point mutation (Hyg⁻; FIG. 15; SEQ ID NO:______]) using primers AUR123f (5′-[…]-3′; SEQ ID NO: 45) and Hyg1560r (5′-[…]-3′; SEQ ID NO: 46). We follow the protocol described in this Example for the formation of double D-loops in the Kan⁻ PCR product using HygUDF/45G as the incoming oligonucleotide (5′-Cy™ 5-[…]-3′; SEQ ID NO: 47) and various annealing oligonucleotides as indicated in Table 2. We analyze the samples prepared by separating on a 2.5% agarose gel at 4° C. as described above.

Data set [2] concerns the target T1, RecA. Briefly: EMSA; beta-tubulin PCR product; RecA, incoming and LNA annealing oligos all required. As to conditions: label: 5'-biotin. In general terms: In EMSA bound probe runs differently from free probe, usually more slowly.
For data set [3], the target named is T1, RecA. Briefly: EMSA; matched Hyg(rep) 8 kb plasmid target with matched PNA or LNA annealing oligo. As to conditions: label: 5'-Cy5. As for the experimental part:
The target in these experiments is one of two nonsupercoiled plasmids of about 8 kb, differing in a single nucleotide. The incoming oligonucleotides are 31-mer deoxyribonucleotides labeled at the 5′ terminus with either Cy5 or Cy3; the annealing oligonucleotides are 15-mer PNA oligonucleotides acetylated at the N terminus. Deproteinization is performed by adding SDS at either 37° C. or 45° C. to aliquots of the reaction mixture and incubating at the indicated temperature for various amounts of time, after which time the aliquots are removed and placed on dry ice.
Two gels are run separately, but scanned at the same time to allow a direct comparison. Results are shown in FIGS. 18A and 18B for the 37° C. deproteinization data only.

The target in data set [4] is T1, RecA. Briefly: EMSA; Y-arm on OligoT/OligoU duplex with Oligo5; almost quantitative; ATP-gamma-S, Mg2+, 37 C. As for the experimental part:
(§1) We then add double-stranded nucleic acid target, which is generally ³²P-end-labeled using T4 polynucleotide kinase to facilitate detection of the complex, at a concentration of approximately 20 nM and 10 mM magnesium acetate to a final volume of 10 μl. We incubate this reaction for 10 minutes at 37° C. to allow for synapsis between to the incoming oligonucleotide and the target nucleic acid molecule. We then add the second or “annealing” oligonucleotide in 1 μl to a concentration of 640 nM (calculated for the original 10 μl reaction volume) and incubate for 10 minutes at 37° C. to allow the second oligonucleotide to anneal to the target nucleic acid. We then denature the RecA bound to the oligonucleotide:target complex by cooling the reaction to about 4° C. in an ice bath and adding 1 μl of 10% SDS. The samples are then used immediately or stored at −20° C.
To test the formation of Y-arms under our assay conditions, we use a different target duplex DNA composed of two linear 67-mer oligonucleotides with sequence complementary to each other. The sequence of the first target strand, designated “OligoT”, is: 5′-[…]-3′ (SEQ ID NO: 6) and the sequence of the second target strand, designated “OligoU”, is: 3′-[…]-5′ (SEQ ID NO: 7). We use two oligonucleotides complementary to the end of the OligoT/OligoU linear target duplex in these Y-arm experiments. […]

Data set [5] concerns the target T1, RecA. Put plainly: EMSA; Y-arm on OligoT/OligoU. As for the experimental part: as §1
Oligonucleotides used in this example. We use the OligoT/OligoU duplex as the target nucleic acid for these experiments. We use incoming DNA oligonucleotides complementary over a range of lengths to the end of the duplex target as follows: OligoV is a 20-mer with the sequence 5′-[…]-3′ (SEQ ID NO: 10); OligoW is a 25-mer with the sequence 5′-[…]-3′ (SEQ ID NO: 11); OligoX is a 30-mer (SEQ ID NO: 8); OligoY is a 35-mer with the sequence 5′-[…]-3′ (SEQ ID NO: 12); OligoZ is a 40-mer with the sequence 5′-[…]-3′ (SEQ ID NO: 13); and Oligo1 is a 46-mer with the sequence 5′-[…]-3′ (SEQ ID NO: 14). We use annealing DNA oligonucleotides complementary to the end of the duplex target (and to the incoming oligonucleotides) over a range of lengths as follows: Oligo2 is a 20-mer with the sequence 5′-[…]-3′ (SEQ ID NO: 15); Oligo4 is a 25-mer with the sequence 5′-[…]-3′ (SEQ ID NO: 16); Oligo5 is a 30-mer with the sequence 5′-[…]-3′ (SEQ ID NO: 9); Oligo6 is a 35-mer with the sequence 5′-[…]-3′ (SEQ ID NO: 17); Oligo7 is a 40-mer with the sequence 5′-[…]-3′ (SEQ ID NO: 18); and Oligo8 is a 46-mer with the sequence 5′-[…]-3′ (SEQ ID NO: 19).

Data set [6] addresses T1, RecA. Put plainly: pulldown; Kan plasmid isolated from tet plasmid excess; PNA annealing oligo. The following applies: label: 3'-BioTEG.
The target in data set [7] is T1, RecA. Briefly: EMSA; Y-arm on OligoT/OligoU; longer oligos more efficient. As for the experimental part: as §1
Oligonucleotides used in this example. We use the OligoT/OligoU duplex as the target nucleic acid for these experiments. […]

Data set [8] has as its target T1, RecA. Put plainly: EMSA; OligoA/OligoB target, opposite strand; ATP-gamma-S, Mg2+, 37 C. As for the experimental part: as §1
Oligonucleotides used in this example. We use the OligoA/OligoB duplex as the target nucleic acid for these experiments. As the incoming oligonucleotide, we use either OligoC (SEQ ID NO: 3) or the complementary oligonucleotide which targets the opposite strand of the duplex target, designated “OligoD”, which has the sequence 5′-[…]-3′ (SEQ ID NO: 20).

The target in data set [9] is T1, RecA. Briefly: EMSA; OligoA/OligoB 70-mer duplex target; double D-loop with OligoI or LNA OligoN; ATP-gamma-S, Mg acetate, 37 C. As for the experimental part: as §1
Oligonucleotides used in this example. We employ the protocol described in Example 1 to form double D-loops between two DNA oligonucleotides and linear, duplex target DNA. The target duplex DNA is composed of two linear 70-mer oligonucleotides with sequence complementary to each other. The sequence of the first target strand, designated “OligoA”, is: 5′-[…]-3′ (SEQ ID NO: 1) and the sequence of the second target strand, designated “OligoB”, is: 3′-[…]-5′ (SEQ ID NO: 2). […]

T1 sequence (P0A7G6 2-353, one chain of several): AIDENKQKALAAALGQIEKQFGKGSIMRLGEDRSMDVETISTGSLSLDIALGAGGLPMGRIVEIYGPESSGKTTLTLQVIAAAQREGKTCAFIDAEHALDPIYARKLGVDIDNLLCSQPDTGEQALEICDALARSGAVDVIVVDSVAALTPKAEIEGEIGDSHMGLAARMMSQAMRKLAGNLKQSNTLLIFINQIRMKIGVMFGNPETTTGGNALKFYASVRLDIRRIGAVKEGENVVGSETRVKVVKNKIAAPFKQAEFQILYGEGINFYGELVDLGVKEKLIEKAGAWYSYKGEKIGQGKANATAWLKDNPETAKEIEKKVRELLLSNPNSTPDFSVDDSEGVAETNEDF

Turning to CGCAGCTATTTACCCGCAGGACCTATCCACGCCCTCCTACATCGA (ssDNA) [HygUDF/45G incoming], the binding result in the data set with RecA [1] is on record as “binds”.

Turning to GGCCTGAAGATGTCGGCCACCTTCATCGGCA (ssDNA) [betaTUBwt/31D/5'Bio], in the data set with RecA [2], the binding result is reported as “binds”.

Regarding ATTTACCCGCAGGACCTATCCACGCCCTCCT (ssDNA) [HYG(NT)D5Cy5/31C(rep)], the binding result with RecA [3] was “binds”.

With GCAGACTTCTCCTCAGGAGTCAGGTGCACC (ssDNA) [OligoX incoming 30-mer], in the data set with RecA [4], the binding result is given as “binds”.

Regarding GCAGACTTCTCCTCAGGAGTCAGGTGCACCATGGT (ssDNA) [OligoY incoming 35-mer], the binding result in the data set with RecA [5] is recorded as “binds”.

For GAGGCTATTCGGCTATGACTGGGCACAACAG (ssDNA) [KAN/LDB/31t], in the data set with RecA [6], the binding result is reported as “binds”.

Turning to GCAGACTTCTCCTCAGGAGTCAGGTGCACCATGGTGTCTGTTTGAG (ssDNA) [Oligo1 incoming 46-mer], the binding result with RecA [5] is “binds”.

Take GCAGACTTCTCCTCAGGAGTCAGGTGCACCATGGTGTCTG (ssDNA) [OligoZ incoming 40-mer]: the binding result in the data set with RecA [5] was “binds”.

On to GCAGACTTCTCCTCAGGAGT (ssDNA) [OligoV incoming 20-mer], for which the binding result with RecA [7] was “binds”.

As to GCAGACTTCTCCTCAGGAGTCAGGT (ssDNA) [OligoW incoming 25-mer], the binding result in the data set with RecA [5] is recorded as “binds”.

For the molecule CTGTTGTGCCCAGTCCTAGCCGAATAGCCT (ssDNA) [OligoD incoming 30-mer], the binding result in the data set with RecA [8] is “binds”.

Regarding AGGCTATTCGGCTACGACTGGGCACAACAG (ssDNA) [OligoC incoming 30-mer], the binding result with RecA [9] is “binds”.
